The results in this text go back to the RNAGym collection of RNA variant scans (doi:10.1073/pnas.2313332121).

Sequences and labels used below:
B1: TPR t1 (parent)
chain: GACCAAUCUGCCCUCAGAGCUCGAGAACAUCUUCGGAUGCAGAGGAGGCAGGCUUCGGUGGCGCGAUAGCGCCAACGUCCUCAACCUCCAAUGCAUCCCACCACAUGAUGAUGCCUGAAGAGCCUUGGUUUUUUG

The data set covers variants of B1. As to the kind of experiment: polymerase ribozyme fitness, log enrichment relative to wild type (log ratio); higher = more active; in vitro selection for triplet polymerase activity. The method in brief: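 One round of in vitro selection, in triplicate, was applied to PCR-built, transcribed mutant libraries of each subunit of a heterodimeric triplet polymerase ribozyme. The steps were annealing with a biotinylated primer, partner subunit and triplets, incubation frozen at −7 °C, gel excision of extended constructs, streptavidin-bead capture and RT-PCR. Fitness is the logarithm, base 2, of genotype enrichment over wild-type enrichment from inverse-variance-weighted replicate averages of Illumina-sequenced inputs and outputs, keeping genotypes with ≥10 input reads and ≥1 read per output.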
Take GACAAAGCUGCCCUCAGAGCUCGAGAACAUCUUCGGAUGCAGAGGAGGCAGGCUUCGGUGGCGCGAUACCGCCAACGUCCUCAACCUCCCAUGCAUCCCACCACAUGAUGACGCCUGAAGAGUCUUGGUUUUUUG: the “polymerase ribozyme fitness (log ratio)” value was -3.35.
To GACAAAUCUGCCCUCAGAGCUCGAGAACAUCUUCGGAUGCAGAGGAGGCAGGCUUCGGUGUCGCGAUAGCGCCAACGUCCUCAACCUCCAAUGCAUCCCACCACAUGAUGAUGCCUGAAGAGCCUUGGUUUUUUG belongs -1.15.
The result for GACAAAUCUGCCCUCAGAGCUCGAGAACAUCUUCGGAUGCAGAGGAGGCAGGCUUCGGUGACGCGAUAGCGCCAACGUCCUCAACCUCCAAUGCAUCCCACCACAUGAUGAUGCCUGAAGAGCCUUGGUUUUUUG reads -1.34.
To GACAAAUCUGCCCUCAGAGCUCGAGAACAUCUUCGGAUGCAGAGGAGGCAGGCUUCGGUGGCGCGAUAGCGCCAACGUCCUCAACCUCCAAUGCAUCCCACCACAUGAUGAUGCCUGAAGAGCUUUGGUUUUUUG belongs -1.17.
Turning to GACAAAUCUGCCCUCAGAGCUCGAGAACAUCUUCGGAUGCAGAGGAGGCAGGCUUCGGUAGCGCGAUAGCGCCAACGUCCUCAACCUCCAAUGCAUCCCACUACAUGAUGAUGCCUGUAGAGCCUUGGUUUCUUG, the “polymerase ribozyme fitness (log ratio)” value is -4.76.
Turning to GACAAAUCUGCCCUCAGAGCUCGAGAACAUCUUCGGAUGCAGAGGAGUCAGGCUUCGGUGCCGCGAUAGCGCCAACGUCCUCAACCUCUAAUGCAUCCCACCACAUGAUGAUGCCUGAAGGGCCUUGGUUUUUUG, the “polymerase ribozyme fitness (log ratio)” value is -1.77.
With GACAAAACUGCCCUCAGAGCUCGAGAACAUCUUCGGAUGCAGAGGAGGCAGGCUUCGGUGACGCGAUAGCGCCAACGUCCUCAACCUCCAAUGCAUCCCACCACAUGAUGAUGCCUGAAGAGCCUUGGUUUUUUG, the “polymerase ribozyme fitness (log ratio)” value is -0.369.
To GACAAAUCUGCCCUCAGAGCUCGAGAACAUCUUCGGAUGCAGAGGAGGCAGGCUUCGGUGGCGCGAUAGCGCCAACGUCCUCAACCUCCAAUGCAUCCCACCACAUGAUGAAGCCUGAAGAGCCUUGGUUUUUUG belongs 0.26; to GACAAAUCUGCCCUCAGAGCUCGAGAACAUCUUCGGAUGCAGAGGAGGCAGCCUUCGGUGGCGCGAUAGCGCCAACGUCCUCAACCUCCAAUGCAUCCCACCACAUGAUGAUGCCUGAAGAGCCUUGGUUUUUUG, -2.41.
Turning to GACAAAUCUGCCCUCAGAGCUCGAGAACAUCUUCGGAUGCAGAGGAGGCAGGCUUCGGUGUCGCGAUAGCGCCAACGUCCUCAACCUCCAAUGCAUCCCACCACUUGAUGAUGCCUGAAGAGCCUUGGUUUUUUG, the “polymerase ribozyme fitness (log ratio)” value was -4.13.
Take GACAAAUCUGCCCUCAGAGCUCGAGAACAUCUUCGGAUGCAGAGGAGGCAGGCUUCGGUGGCGCGAUAGCGCCAACGUCCUCAACCUCCAAUGCAUCCCACCACAUGAUGAUUCCUGAAGAGCCUUGGUUUUUUG: the “polymerase ribozyme fitness (log ratio)” value is -3.74.
The result for GACAAAUCUGCCCUCAGAGCUCGAGAACAUCUUCGCAUGCAGAGGAGGCAGGCUUCGGUGGCGCUAUAGCGCCAACGUCCUCAACCUCCAAUGCAUCCCACCAUAUGAUGAUGCCUGAGGUGCCUUGUAUUUUUG reads -6.35.
Consider GACAAAUCUGCCCUCAGAGCGCGAGAACAUCUUCGGAUGCAGAUGAGGCAGGCUUCGGUGGCUCGAUAGCGCCAACGUCCUAAACCUCCAAUGCAUCCCACCACAUGAUGAUGCCUGAAGAGCGUUGGUUUUUUG, for which the “polymerase ribozyme fitness (log ratio)” value is -4.8.
Consider GACAAAUCUGCCCUCAGAGCUCGAGAACAUCUUCGGAUGCAGAGGAGGCAGGCUUCGGUGGCGCGAUAGCGCCAACGUCCUCAACCUCCAAUGCAUCCCACCACAUGAUGAUGCCUGAACAGCCUUGGUUUUUUG, for which the “polymerase ribozyme fitness (log ratio)” value is -0.842.
The result for GACAAAUCUGCCCUCAGAGCUCGAGAACAUCUUCGGAUGCAGAGGAGGCAGGCUUCGGUGGCGCGAUAGCGCCAACGUCCUCAACCUCCAAUGCAUCCCACCACAUGAUGAUGCCUGAAGAGACUUGGUUUUUUG reads -0.283; that for GACAAAUCUGCCCUCAGAGCUCGAGAACAUCUUCGGAUGCAGAGGAGGCAGGCUUCGGUGGCGCGAUAGCGCCAACGUCCUCAACCUCCAAUGCAUCCUACCACAUGAUGAUGCCUGAAGAGCCUUGGUUUUUUG, -4.5; that for GACAAAUCGGCCCUCAGAGCUCGAGAACAUCUUCGGAUGCAGAGGAGGCAGGCUUCGGUGGCGCGAUAGCGCCAACGUCCUCAACCUCCAAUGCAUCCCACCACAUGAUGAUGCCUGAAGAGCCUUGGUUUUUUG, -0.689.
To GACAAAUCUGCCCUCAGAGCUCGAGAACAUCUUCGGAUGCAUAGGAGGCAGGCUUCGGUGGCGCGAUAUCGCCAACGUCCUCAACCUCCAAUGCAUCCCACCACAUGAUGAUGCCUGAAGAGCCUUGGUUUUUUG belongs -1.62; to GACAAAUCUGCCCUCAGAGCUCGAGAACAUCUUCGGAUGCAGAGGAGGCAGGCUUCGGUGGCGCGAUAACGCCAACGUCCUCAACCUCCAAUGCAUCCCACCACAUGAUGAUGCCUGAAGAGCCUUGGUUUUUUG, -4.36.
To GACAAAUCAGCCCUCAGAGCUCGAGAACAUCUUCGGAUGCAGAGGAGGCAGGCUUCGGUGGCGUGAUAGCGCCAACGUCCUCAACCUCCAAUGCACCCCACCACAUGAUGAUGCCUGAAGAGCCUUGGUUUUUUG belongs -0.963.
Regarding GACAAAUCUGCCCUCAGAGCUCGAGAACAUCUUCGGAUGCAGAGGAGGCAGGCUUCGGUGCCGCGAUAGCGCCAACGUCCUCAUCCUCCAAUGCAUCCCACCACAUGAUGAUGCCUGAAGAGCCUUGGUUUUUUG, the “polymerase ribozyme fitness (log ratio)” value is -4.45.
